Measured values taken from patent US20240409629A1 (CHIA TAI TIANQING PHARMACEUTICAL GROUP, published 2024).
Substitutions are numbered along the chain they refer to. Where two headings read alike, the source gives them in different places.

B1: chimeric antibody xi34G6 (antibody, human IgG1, kappa, V domains shown)
VH: QVQLKESGPDLVAPSQSLSITCTVSGFSLTSYGVHWVRQPPGKGLEWLVVIWSDGSTTYNSALKSRLSISKDNSKSQVFLKMNSLQTDDTAIYYCARHAYYGNSFDYWGQGTTLTVSS
VL: DIVMTQSPSSLTVTAGEKVTMSCKSSQSLLNSGNQKSYLTWYQQKPGQPPKLLIYWASTRESGVPDRFTGSGSGTDFTLTISSVQAEDLAVYYCQNVYIFPLTFGAGTKLELKR
notes: Mouse variable regions on human IgG1/kappa; defucosylated, expressed in FUT8-knockout CHO-S cells; also called chimeric 34G6
B2: chimeric antibody xi40F6 (antibody, human IgG1, kappa, V domains shown)
VH: QVQLKESGPGLVAPSQSLSITCTVSGFSLTSYGVYWVRQSPGKGLEWLGVVWAGGNTNYNSALMSRLSISKDNSKSQVFLKMNSLQTDDTAMYYCARDRGRLLAMDYWGQGTSVTVSS
VL: DVVMTQSPSSLSVSAGEKVTMSCKSSQSLLNSGNQKNYLAWYQQKPGQPPKLLIYGASTRESGVPDRFTGSGSGTDFTLTISSVQAEDLAVYYCQNDHFFPFTFGSGTKLEIKR
notes: Mouse variable regions on human IgG1/kappa; defucosylated, expressed in FUT8-knockout CHO-S cells; also called chimeric 40F6
B3: IMAB362 (antibody, human IgG1, kappa, V domains shown)
VH: QVQLQQPGAELVRPGASVKLSCKASGYTFTSYWINWVKQRPGQGLEWIGNIYPSDSYTNYNQKFKDKATLTVDKSSSTAYMQLSSPTSEDSAVYYCTRSWRGNSFDYWGQGTTLTVSS
VL: B1 VL with S37N, V97D, I99S, F100Y, L102F, A106S, L112I
notes: Positive control, prepared in-house; also called Claudiximab; TMAB362 [sic]

Key:
human CLDN18.2 [1] = target: T1, human CLDN18.2 (human); test: FACS, U2OS-CLDN18.2 cells
T1 construct: also called claudin18.2
Protocol: (§1) Based on the FACS method, the binding activity of anti-CLDN18.2 antibodies for the cell line U2OS-CLDN18.2 overexpressing CLDN18.2 and the cell lines KATOIII (Cell Bank of the Chinese Academy of Sciences) and NUGC-4 (Cell Bank of the Chinese Academy of Sciences) naturally expressing CLDN18.2 was analyzed.
(§2) The cell concentration was adjusted with PBS, and cells (U2OS-CLDN18.2, KATOIII, or NUGC-4 cells) were added to a 96-well plate at 3×10⁵ cells/well, then the test antibodies at different concentrations were added to each well of the 96-well plate, and the mixture was incubated at 4° C. for 60 min. […] The supernatant was discarded, the cells were washed 3 times with pre-cooled PBS buffer, PE-Goat Anti-Human IgG Fcγ (Jackson immunoresearch, Cat. No. 109-116-170) diluted at 1:200 was added at 100 μL/well, and the mixture was incubated at 4° C. for 30 min. Cells were washed 3 times with pre-cooled PBS buffer and resuspended in 100 μL of PBS buffer, and then the fluorescence signals were detected using a flow cytometer (Sartorius, iQUE3). The binding ability of the anti-CLDN18.2 antibodies for CLDN18.2 was measured by mean fluorescence intensity (MFI) of staining.

human CLDN18.1 [2] = target: T2, human CLDN18.1 (human, UniProt P56856 1-261); test: FACS, U2OS-CLDN18.1 cells; MFI against 2-fold the IgG1 isotype control
T2 construct: also called claudin18.1
Protocol: (§3) Based on the FACS method, the binding activity of anti-CLDN18.2 antibodies for the cell line U2OS-CLDN18.1 overexpressing CLDN18.1 (SEQ ID NO: 2) was analyzed. The cell concentration was adjusted with PBS, and the U2OS-CLDN18.1 cells were added to a 96-well plate at 3×10⁵ cells/well, then the test antibodies were added to each well of the 96-well plate, the final concentration of the antibody was 200 nM, and the mixture was incubated at 4° C. for 60 min. The supernatant was discarded, the cells were washed 3 times with pre-cooled PBS buffer, PE-Goat Anti-Human IgG Fcγ (Jackson immunoresearch, Cat. No. 109-116-170) diluted at 1:200 was added at 100 μL/well, and the mixture was incubated at 4° C. for 30 min. Cells were washed 3 times with pre-cooled PBS buffer and resuspended in 100 μL of PBS buffer, and then the fluorescence signals were detected using a flow cytometer (Sartorius, iQUE3). The nonspecific binding of the anti-CLDN18.2 antibodies for U2OS-CLDN18.1 cells was measured by mean fluorescence intensity (MFI) of staining. The IgG1 isotype control antibody (prepared in-house, with the heavy and light chain amino acid sequences as set forth in SEQ ID NOs: 67 and 68 in the present disclosure) was used as the control, and 2-fold the IgG1 isotype control antibody was used as the benchmark, thus determining the presence or absence of nonspecific binding.

human CLDN18.2 [3] = target: T1, human CLDN18.2; test: FACS, NUGC-4 cells (natural CLDN18.2)
Protocol: as §1, §2

human CLDN18.2 [4] = target: T1, human CLDN18.2; test: cell-based or functional assay
human CLDN18.2 [5] = target: T1, human CLDN18.2; test: cell-based or functional assay; remark: listed apart in the source
human CLDN18.1 [6] = target: T2, human CLDN18.1; test: FACS, U2OS-CLDN18.1 cells, antibody at 200 nM
Protocol: as §3

human CLDN18.2 [7] = target: T1, human CLDN18.2; test: cell-based or functional assay; remark: listed apart in the source
human CLDN18.2 [8] = target: T1, human CLDN18.2; test: FACS, KATOIII cells (natural CLDN18.2)
Protocol: as §1, §2

human CLDN18.2 [9] = target: T1, human CLDN18.2; test: FACS, KATOIII cells (natural CLDN18.2); remark: listed apart in the source
Protocol: (§4) Based on the FACS method, the binding activity of anti-CLDN18.2 humanized antibodies for the cell lines KATOIII (Cell Bank of the Chinese Academy of Sciences) and NUGC-4 (Cell Bank of the Chinese Academy of Sciences) naturally expressing CLDN18.2 was analyzed. […] See Example 3 for the specific method.

human CLDN18.2 [10] = target: T1, human CLDN18.2; test: FACS, NUGC-4 cells (natural CLDN18.2); remark: listed apart in the source
Protocol: as §1, §2

human CLDN18.2 [11] = target: T1, human CLDN18.2; test: cell-based or functional assay; remark: listed apart in the source
human CLDN18.2 [12] = target: T1, human CLDN18.2; test: FACS, NUGC-4 cells (natural CLDN18.2); remark: listed apart in the source
Protocol: as §4

human CLDN18.2 [13] = target: T1, human CLDN18.2; test: cell-based or functional assay; remark: listed apart in the source
human CLDN18.2 [14] = target: T1, human CLDN18.2; test: FACS, U2OS-CLDN18.2 cells; remark: listed apart in the source
Protocol: as §1, §2

human CLDN18.2 [15] = target: T1, human CLDN18.2; test: FACS, NUGC-4 cells (natural CLDN18.2); remark: listed apart in the source
Protocol: as §1, §2

human CLDN18.2 [16] = target: T1, human CLDN18.2; test: cell-based or functional assay; remark: listed apart in the source
human CLDN18.2 [17] = target: T1, human CLDN18.2; test: FACS, NUGC-4 cells (natural CLDN18.2); remark: listed apart in the source
Protocol: as §4

human CLDN18.2 [18] = target: T1, human CLDN18.2; test: FACS, KATOIII cells (natural CLDN18.2); remark: listed apart in the source
Protocol: as §1, §2

human CLDN18.2 [19] = target: T1, human CLDN18.2; test: FACS, U2OS-CLDN18.2 cells; remark: listed apart in the source
Protocol: as §1, §2

human CLDN18.2 [20] = target: T1, human CLDN18.2; test: FACS, KATOIII cells (natural CLDN18.2); remark: listed apart in the source
Protocol: as §4

Row | Binder | EC50 (human CLDN18.2 [1]) | binding result (human CLDN18.1 [2]) | EC50 (human CLDN18.2 [3]) | CDC EC50, KATOIII target cells (human CLDN18.2 [4]) | CDC EC50, U2OS-CLDN18.2 target cells (human CLDN18.2 [4]) | ADCC EC50, Jurkat-CD16a v158-NFAT-luciferase effector cells, KATOIII target cells (human CLDN18.2 [5]) | ADCC EC50, Jurkat-CD16a v158-NFAT-luciferase effector cells, NUGC-4 target cells (human CLDN18.2 [5]) | ADCC EC50, Jurkat-CD16a v158-NFAT-luciferase effector cells, U2OS-CLDN18.2 target cells (human CLDN18.2 [5]) | MFI (human CLDN18.1 [6]) | ADCC EC50, PBMC effector cells, NUGC-4 target cells (human CLDN18.2 [7]) | ADCC Maximum killing (%), PBMC effector cells, NUGC-4 target cells (human CLDN18.2 [7]) | EC50 (human CLDN18.2 [8]) | EC50 (human CLDN18.2 [9]) | EC50 (human CLDN18.2 [10]) | CDC EC50, NIH-3T3-CLDN18.2 target cells (human CLDN18.2 [11]) | EC50 (human CLDN18.2 [12]) | ADCC EC50, Jurkat-CD16a v158-NFAT-luciferase effector cells, NIH-3T3-CLDN18.2 target cells (human CLDN18.2 [13]) | ADCC EC50, Jurkat-CD16a v158-NFAT-luciferase effector cells, NUGC-4 target cells (human CLDN18.2 [13]) | EC50 (human CLDN18.2 [14]) | other results
1 | B1 | 4.28 nM | no binding (tested: 200 nM) | 19.9 nM | 0.302 nM | 1.77 nM | 0.064 nM | 0.214 nM | 0.06 nM | 7630 | 0.62 nM | 40.9% | 1.79 nM |  |  |  |  |  |  |  | 
2 | B2 |  | no binding (tested: 200 nM) |  | 0.127 nM | 1.07 nM | 0.03 nM | 0.147 nM | 0.032 nM | 7070 | 0.8 nM | 45.2% | 5.97 nM | 7.02 nM | 12.5 nM | 0.29 nM | 12.5 nM | 0.014 nM | ~0.014 nM | 4.47 nM | 
3 | B3 | 16.2 nM |  | 202 nM | 12.8 nM | 9.79 nM | 1.52 nM | 12 nM | 0.05 nM | 6220 | 37.1 nM | 29.1% | ~26900 nM | 38.2 nM | 567 nM | 24.4 nM | 567 nM | 0.023 nM | 0.856 nM | 22.9 nM | EC50 (human CLDN18.2 [15]): 1450 nM; ADCC EC50, Jurkat-CD16a v158-NFAT-luciferase effector cells, KATOIII target cells (human CLDN18.2 [16]): 16.9 nM; ADCC EC50, Jurkat-CD16a v158-NFAT-luciferase effector cells, U2OS-CLDN18.2 target cells (human CLDN18.2 [16]): 0.014 nM; EC50 (human CLDN18.2 [17]): 293 nM; EC50 (human CLDN18.2 [18]): 81.3 nM; EC50 (human CLDN18.2 [19]): 16 nM; ADCC EC50, PBMC effector cells, KATOIII target cells (human CLDN18.2 [7]): ~0.123 nM; ADCC Maximum killing (%), PBMC effector cells, KATOIII target cells (human CLDN18.2 [7]): 20.7%; EC50 (human CLDN18.2 [20]): 16.3 nM
